Data published in PMC13389011.
Several values for one entry are separate records, joined by “and”; a condition that tells them apart may be missing. Equal entries are not always repeated.

Key:
[1] = tested on: Human insulin receptor ectodomain (HIR) (Homo sapiens), P06213-2+P06213-2; assay: ELONA; details: DNA backbone, PBS (1.5 mM KH2PO4, 8.1 mM Na2HPO4, 2.7 mM KCl, 137 mM NaCl) with 5 mM MgCl2, pH 7.4, MST with 0.1% Pluronic F-127 at 25 C, FNBA at room temperature, high values mean tight binding
[2] = tested on: Human insulin receptor ectodomain (HIR) (Homo sapiens), P06213-2+P06213-2; assay: MST; details: DNA backbone, PBS (1.5 mM KH2PO4, 8.1 mM Na2HPO4, 2.7 mM KCl, 137 mM NaCl) with 5 mM MgCl2, pH 7.4, MST with 0.1% Pluronic F-127 at 25 C, FNBA at room temperature, high values mean tight binding
[3] = biological target: Dog insulin receptor ectodomain (DIR) (dog) (UniProt A0A8I3PWD4); assay: MST; details: phenyl-dU (rigid) and indole-dA (flexible) after nt 20; IB: PBS (1.5 mM KH2PO4, 8.1 mM Na2HPO4, 2.7 mM KCl, 137 mM NaCl) + 5 mM MgCl2, pH 7.4; MST +0.1% Pluronic F-127, 25 C; SPR 25 C; FNBA and BLI r.t.
[4] = biological target: Human IGF-1R ectodomain (Homo sapiens) (UniProt P08069+P08069); assay: MST; details: DNA backbone; 7-deaza-7-(indolyl-ethyl)-dA (dAAIn) at 27,28,32,33,35,39,48,51; 5-(phenyl-ethynyl)-dU (dUEPh) at 24,25,26,31,40,42,44,46,49,52,54; PBS (1.5 mM KH2PO4, 8.1 mM Na2HPO4, 2.7 mM KCl, 137 mM NaCl) with 5 mM MgCl2, pH 7.4; MST with 0.1% Pluronic F-127 at 25 C; FNBA at room temperature; high values mean tight binding
[5] = tested on: Human insulin receptor ectodomain (HIR) (Homo sapiens), P06213-2; assay: MST; details: IB: PBS (1.5 mM KH2PO4, 8.1 mM Na2HPO4, 2.7 mM KCl, 137 mM NaCl) + 5 mM MgCl2, pH 7.4, MST +0.1% Pluronic F-127, 25 C, SPR 25 C, FNBA and BLI r.t.
[6] = biological target: T1, Cat insulin receptor ectodomain (CIR) (cat) (UniProt A0ABI7YJR5+A0ABI7YJR5); assay: ELONA; details: DNA backbone; 7-deaza-7-(indolyl-ethyl)-dA (dAAIn) at 27,28,32,33,35,39,48,51; 5-(phenyl-ethynyl)-dU (dUEPh) at 24,25,26,31,40,42,44,46,49,52,54; PBS (1.5 mM KH2PO4, 8.1 mM Na2HPO4, 2.7 mM KCl, 137 mM NaCl) with 5 mM MgCl2, pH 7.4; MST with 0.1% Pluronic F-127 at 25 C; FNBA at room temperature; high values mean tight binding
[7] = biological target: T2, Dog insulin receptor ectodomain (DIR) (dog) (UniProt A0A8I3PWD4+A0A8I3PWD4); assay: ELONA; details: DNA backbone; 7-deaza-7-(indolyl-ethyl)-dA (dAAIn) at 27,28,32,33,35,39,48,51; 5-(phenyl-ethynyl)-dU (dUEPh) at 24,25,26,31,40,42,44,46,49,52,54; PBS (1.5 mM KH2PO4, 8.1 mM Na2HPO4, 2.7 mM KCl, 137 mM NaCl) with 5 mM MgCl2, pH 7.4; MST with 0.1% Pluronic F-127 at 25 C; FNBA at room temperature; high values mean tight binding
[8] = tested on: Human insulin receptor isoform A, native (IM-9 cells) (Homo sapiens), P06213-2+P06213-2; assay: competition with 125I-insulin; details: after primer nt 1-20 every U = rigidly linked phenyl-dU and every A = flexibly linked indole-dA (nucleotides 1,2); DNA backbone; IB: PBS (1.5 mM KH2PO4, 8.1 mM Na2HPO4, 2.7 mM KCl, 137 mM NaCl) + 5 mM MgCl2, pH 7.4; MST +0.1% Pluronic F-127, 25 C; SPR 25 C; FNBA and BLI r.t.
[9] = tested on: Human insulin receptor ectodomain (HIR) (Homo sapiens), P06213-2; assay: BLI; details: after primer nt 1-20 every U = rigidly linked phenyl-dU and every A = flexibly linked indole-dA (nucleotides 1,2); DNA backbone; IB: PBS (1.5 mM KH2PO4, 8.1 mM Na2HPO4, 2.7 mM KCl, 137 mM NaCl) + 5 mM MgCl2, pH 7.4; MST +0.1% Pluronic F-127, 25 C; SPR 25 C; FNBA and BLI r.t.
[10] = tested on: Human insulin receptor ectodomain (HIR) (Homo sapiens), P06213-2; assay: SPR; details: after primer nt 1-20 every U = rigidly linked phenyl-dU and every A = flexibly linked indole-dA (nucleotides 1,2); DNA backbone; IB: PBS (1.5 mM KH2PO4, 8.1 mM Na2HPO4, 2.7 mM KCl, 137 mM NaCl) + 5 mM MgCl2, pH 7.4; MST +0.1% Pluronic F-127, 25 C; SPR 25 C; FNBA and BLI r.t.
[11] = biological target: T1, Cat insulin receptor ectodomain (CIR) (cat); assay: MST; details: DNA backbone; 7-deaza-7-(indolyl-ethyl)-dA (dAAIn) at 27,28,32,33,35,39,48,51; 5-(phenyl-ethynyl)-dU (dUEPh) at 24,25,26,31,40,42,44,46,49,52,54; PBS (1.5 mM KH2PO4, 8.1 mM Na2HPO4, 2.7 mM KCl, 137 mM NaCl) with 5 mM MgCl2, pH 7.4; MST with 0.1% Pluronic F-127 at 25 C; FNBA at room temperature; high values mean tight binding
[12] = biological target: T2, Dog insulin receptor ectodomain (DIR) (dog); assay: MST; details: DNA backbone; 7-deaza-7-(indolyl-ethyl)-dA (dAAIn) at 27,28,32,33,35,39,48,51; 5-(phenyl-ethynyl)-dU (dUEPh) at 24,25,26,31,40,42,44,46,49,52,54; PBS (1.5 mM KH2PO4, 8.1 mM Na2HPO4, 2.7 mM KCl, 137 mM NaCl) with 5 mM MgCl2, pH 7.4; MST with 0.1% Pluronic F-127 at 25 C; FNBA at room temperature; high values mean tight binding
[13] = biological target: Insulin (Homo sapiens) (UniProt P01308); assay: radioligand binding; details: cited from earlier work
[14] = 7-deaza-7-(indolyl-ethyl)-dA (dAAIn) at 27,35,36,38,41,44,48,54, 5-(phenyl-ethynyl)-dU (dUEPh) at 21,22,23,32,33,37,40,45,46,50,53
[15] = 7-deaza-7-(indolyl-ethyl)-dA (dAAIn) at 27,28,32,33,35,39,48,51, 5-(phenyl-ethynyl)-dU (dUEPh) at 24,25,26,31,40,42,44,46,49,52,54
[16] = 7-deaza-7-(indolyl-ethynyl)-dA (dAEIn) at 27,28,32,33,35,39,48,51, 5-(phenyl-ethyl)-dU (dUAPh) at 24,25,26,31,40,42,44,46,49,52,54
[17] = 7-deaza-7-(indolyl-ethynyl)-dA (dAEIn) at 27,28,32,33,35,39,48,51, 5-(phenyl-ethynyl)-dU (dUEPh) at 24,25,26,31,40,42,44,46,49,52,54
[18] = 7-deaza-7-(indolyl-ethyl)-dA (dAAIn) at 27,28,32,33,35,39,48,51, 5-(phenyl-ethyl)-dU (dUAPh) at 24,25,26,31,40,42,44,46,49,52,54
[19] = 7-deaza-7-(phenyl-ethyl)-dA (dAAPh) at 27,28,32,33,35,39,48,51, 5-(phenyl-ethynyl)-dU (dUEPh) at 24,25,26,31,40,42,44,46,49,52,54

Sequence of Human insulin receptor ectodomain (HIR) (Homo sapiens), P06213-2 (P06213 other isoform, or with tags, fused parts or gaps): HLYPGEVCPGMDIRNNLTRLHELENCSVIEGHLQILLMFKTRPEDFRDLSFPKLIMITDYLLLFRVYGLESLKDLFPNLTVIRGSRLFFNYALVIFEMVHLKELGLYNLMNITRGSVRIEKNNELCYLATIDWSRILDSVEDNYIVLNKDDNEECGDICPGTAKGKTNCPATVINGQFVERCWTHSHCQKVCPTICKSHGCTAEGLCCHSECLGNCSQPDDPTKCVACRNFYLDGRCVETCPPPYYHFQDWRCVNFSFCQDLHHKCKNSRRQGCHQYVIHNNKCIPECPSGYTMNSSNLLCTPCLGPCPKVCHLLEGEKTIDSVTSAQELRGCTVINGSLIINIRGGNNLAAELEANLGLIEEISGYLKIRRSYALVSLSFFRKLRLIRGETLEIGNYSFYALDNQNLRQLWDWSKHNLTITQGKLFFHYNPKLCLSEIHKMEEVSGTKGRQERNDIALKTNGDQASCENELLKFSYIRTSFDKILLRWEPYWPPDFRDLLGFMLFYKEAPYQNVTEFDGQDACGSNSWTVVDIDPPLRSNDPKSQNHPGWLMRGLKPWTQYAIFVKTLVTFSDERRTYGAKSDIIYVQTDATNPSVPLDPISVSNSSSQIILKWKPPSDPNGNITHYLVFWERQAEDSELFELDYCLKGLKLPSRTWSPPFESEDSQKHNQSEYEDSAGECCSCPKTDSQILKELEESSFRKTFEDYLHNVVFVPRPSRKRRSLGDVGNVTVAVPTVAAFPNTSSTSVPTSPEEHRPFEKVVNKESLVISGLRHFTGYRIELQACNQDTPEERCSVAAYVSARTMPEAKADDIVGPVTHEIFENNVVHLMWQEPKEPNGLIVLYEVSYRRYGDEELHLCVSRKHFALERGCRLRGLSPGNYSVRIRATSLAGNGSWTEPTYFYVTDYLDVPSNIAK
Sequence of Human insulin receptor ectodomain (HIR) (Homo sapiens), P06213-2+P06213-2 (P06213 other isoform, or with tags, fused parts or gaps, chain 1 of 2): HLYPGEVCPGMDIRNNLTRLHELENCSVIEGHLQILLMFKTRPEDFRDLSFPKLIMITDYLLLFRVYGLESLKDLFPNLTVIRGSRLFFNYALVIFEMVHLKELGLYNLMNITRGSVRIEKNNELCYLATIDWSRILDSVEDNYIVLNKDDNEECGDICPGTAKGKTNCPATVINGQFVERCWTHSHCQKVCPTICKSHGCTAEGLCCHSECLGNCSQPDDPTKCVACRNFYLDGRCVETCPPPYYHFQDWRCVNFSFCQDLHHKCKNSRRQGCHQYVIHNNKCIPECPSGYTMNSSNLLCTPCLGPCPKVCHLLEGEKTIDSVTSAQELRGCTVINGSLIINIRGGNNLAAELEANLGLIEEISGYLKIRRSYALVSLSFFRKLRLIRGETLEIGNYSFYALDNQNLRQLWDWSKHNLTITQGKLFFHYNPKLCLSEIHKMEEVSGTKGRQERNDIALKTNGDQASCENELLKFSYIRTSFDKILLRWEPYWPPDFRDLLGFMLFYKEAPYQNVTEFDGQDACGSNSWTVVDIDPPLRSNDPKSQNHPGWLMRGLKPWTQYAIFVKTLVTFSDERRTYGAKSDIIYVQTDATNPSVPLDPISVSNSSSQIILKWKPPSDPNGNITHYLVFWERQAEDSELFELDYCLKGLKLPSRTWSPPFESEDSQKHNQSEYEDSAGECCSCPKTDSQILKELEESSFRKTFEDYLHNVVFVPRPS
Sequence of Human insulin receptor ectodomain (HIR) (Homo sapiens), P06213-2+P06213-2 (P06213 763-956, chain 2 of 2): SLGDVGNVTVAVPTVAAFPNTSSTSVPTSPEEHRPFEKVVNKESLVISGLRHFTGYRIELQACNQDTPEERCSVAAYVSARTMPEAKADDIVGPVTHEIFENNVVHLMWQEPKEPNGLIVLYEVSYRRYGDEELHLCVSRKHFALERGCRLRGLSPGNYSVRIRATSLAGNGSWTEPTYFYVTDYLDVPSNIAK
T1 sequence (chain, as listed by the source, chain 1 of 2): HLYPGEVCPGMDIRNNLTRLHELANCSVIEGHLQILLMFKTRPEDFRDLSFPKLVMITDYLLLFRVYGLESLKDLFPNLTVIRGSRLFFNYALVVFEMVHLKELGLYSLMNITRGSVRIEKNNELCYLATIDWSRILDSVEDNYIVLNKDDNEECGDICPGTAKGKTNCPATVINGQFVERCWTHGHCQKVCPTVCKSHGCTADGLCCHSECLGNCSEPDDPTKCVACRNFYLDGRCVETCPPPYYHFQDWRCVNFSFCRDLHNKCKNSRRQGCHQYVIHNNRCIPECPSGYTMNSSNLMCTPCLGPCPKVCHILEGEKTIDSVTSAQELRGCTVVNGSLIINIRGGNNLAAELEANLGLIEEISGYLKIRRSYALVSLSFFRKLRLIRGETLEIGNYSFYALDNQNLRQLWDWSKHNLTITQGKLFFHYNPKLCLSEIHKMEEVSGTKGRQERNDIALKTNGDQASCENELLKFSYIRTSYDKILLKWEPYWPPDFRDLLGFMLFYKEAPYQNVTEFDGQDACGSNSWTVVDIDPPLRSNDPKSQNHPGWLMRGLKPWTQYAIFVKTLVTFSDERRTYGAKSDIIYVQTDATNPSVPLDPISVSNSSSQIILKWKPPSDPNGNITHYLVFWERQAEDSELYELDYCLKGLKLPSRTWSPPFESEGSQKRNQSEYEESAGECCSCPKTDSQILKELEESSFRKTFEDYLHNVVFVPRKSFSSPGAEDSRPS
T1 sequence (chain, as listed by the source, chain 2 of 2): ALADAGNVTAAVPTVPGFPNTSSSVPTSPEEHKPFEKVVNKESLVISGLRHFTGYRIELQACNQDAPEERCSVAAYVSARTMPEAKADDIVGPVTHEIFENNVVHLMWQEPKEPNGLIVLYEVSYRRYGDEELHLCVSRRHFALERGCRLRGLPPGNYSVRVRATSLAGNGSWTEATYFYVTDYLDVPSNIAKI
T2 sequence (chain, as listed by the source, chain 1 of 2): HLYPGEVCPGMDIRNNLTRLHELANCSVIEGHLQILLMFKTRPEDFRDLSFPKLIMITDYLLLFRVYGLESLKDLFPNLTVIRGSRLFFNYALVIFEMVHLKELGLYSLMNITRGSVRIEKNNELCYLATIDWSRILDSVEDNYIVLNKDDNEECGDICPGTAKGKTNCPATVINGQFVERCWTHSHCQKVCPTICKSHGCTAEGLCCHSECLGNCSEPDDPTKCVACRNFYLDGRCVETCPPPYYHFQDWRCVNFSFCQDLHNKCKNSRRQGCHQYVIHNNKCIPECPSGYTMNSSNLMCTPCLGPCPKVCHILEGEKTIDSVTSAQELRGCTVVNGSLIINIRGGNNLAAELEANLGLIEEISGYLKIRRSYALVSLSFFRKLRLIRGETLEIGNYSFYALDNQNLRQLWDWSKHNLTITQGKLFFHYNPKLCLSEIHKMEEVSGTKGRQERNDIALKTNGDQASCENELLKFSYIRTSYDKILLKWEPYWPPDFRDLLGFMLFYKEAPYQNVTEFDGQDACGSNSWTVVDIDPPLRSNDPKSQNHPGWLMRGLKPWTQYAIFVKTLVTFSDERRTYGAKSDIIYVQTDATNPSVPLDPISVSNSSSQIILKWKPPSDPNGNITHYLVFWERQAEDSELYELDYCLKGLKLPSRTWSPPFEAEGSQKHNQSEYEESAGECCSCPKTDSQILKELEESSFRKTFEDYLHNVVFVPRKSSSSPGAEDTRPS
T2 sequence (chain, as listed by the source, chain 2 of 2): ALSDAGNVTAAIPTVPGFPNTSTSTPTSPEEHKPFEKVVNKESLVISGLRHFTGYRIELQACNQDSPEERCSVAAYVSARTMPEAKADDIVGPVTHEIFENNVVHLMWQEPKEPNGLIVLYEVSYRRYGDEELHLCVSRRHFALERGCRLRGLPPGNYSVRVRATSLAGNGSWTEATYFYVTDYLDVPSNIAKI
Sequence of Insulin (Homo sapiens) (P01308 90-110): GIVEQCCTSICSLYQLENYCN
Sequence of Dog insulin receptor ectodomain (DIR) (dog) (UniProt A0A8I3PWD4) (A0A8I3PWD4 entry or part of it): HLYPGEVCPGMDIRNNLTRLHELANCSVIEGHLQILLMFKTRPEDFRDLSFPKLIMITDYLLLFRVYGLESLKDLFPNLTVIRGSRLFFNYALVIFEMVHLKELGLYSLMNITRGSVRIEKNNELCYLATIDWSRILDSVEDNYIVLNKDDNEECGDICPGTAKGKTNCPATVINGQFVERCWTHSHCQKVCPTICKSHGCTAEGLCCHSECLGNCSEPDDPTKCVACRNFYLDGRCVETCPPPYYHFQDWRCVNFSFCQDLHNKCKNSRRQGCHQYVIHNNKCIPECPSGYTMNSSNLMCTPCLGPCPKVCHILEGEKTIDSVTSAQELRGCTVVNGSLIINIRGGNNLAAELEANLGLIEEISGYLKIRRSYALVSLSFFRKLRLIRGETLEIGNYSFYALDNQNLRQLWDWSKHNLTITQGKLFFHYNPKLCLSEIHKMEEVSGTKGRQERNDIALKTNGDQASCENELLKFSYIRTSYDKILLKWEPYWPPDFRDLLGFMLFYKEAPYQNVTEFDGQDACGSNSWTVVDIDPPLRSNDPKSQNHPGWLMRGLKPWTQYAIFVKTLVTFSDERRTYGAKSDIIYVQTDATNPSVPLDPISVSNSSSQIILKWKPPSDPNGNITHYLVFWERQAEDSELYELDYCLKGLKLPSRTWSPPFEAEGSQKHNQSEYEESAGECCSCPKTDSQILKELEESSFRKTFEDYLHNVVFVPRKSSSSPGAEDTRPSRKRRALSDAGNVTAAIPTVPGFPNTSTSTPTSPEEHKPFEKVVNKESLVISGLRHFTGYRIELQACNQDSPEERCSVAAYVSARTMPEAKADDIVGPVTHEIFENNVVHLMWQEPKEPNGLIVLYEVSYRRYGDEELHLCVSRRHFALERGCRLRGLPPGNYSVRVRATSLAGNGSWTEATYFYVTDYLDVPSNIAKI

ACTGCACCTGGCCTTTAACTUUUCGCACGCGUUGAAUACUACCAUUGAGUCGUAG [HIR_SC]
binding signal (a.u. fluorescence) [1, 14]: 266
binding (delta Fnorm (per mille)) [2, 14]: -1.14

CAACTTCTACCGGTCCATGTUUGUGAUGCCGACAGCUAGCAGCAAGUAAACGGUC [DIR-5]
Kd [3]: 19.2 nM

CATGACGCTCACTGTATCTCGCCUUUAACGUAAGAGCGAUGUCUCUCAUGAUGUC [HIR-8]
binding signal (a.u. fluorescence) [1, 15]: 34500
binding (delta Fnorm (per mille)) [2, 15]: 24.8
binding (delta Fnorm (per mille)) [4]: -0.562
Kd ([5]; as HIR-6: phenyl-dU (rigid) and indole-dA (flexible) after nt 20): 11.7 nM

CATGACGCTCACTGTATCTCGCGTTTAACGUAACAGCGAUGUCUCUCAUGAUGUC [HIR-6_M1]
binding signal (a.u. fluorescence) ([1]; 7-deaza-7-(indolyl-ethyl)-dA (dAAIn) at 32,33,35,39,48,51, 5-(phenyl-ethynyl)-dU (dUEPh) at 31,40,42,44,46,49,52,54): 205

CATGACGCTCACTGTATCTCGCGUUUAACGUAACAGCGAUGUCUCUCAUGAUGUC [HIR-6]
binding signal (a.u. fluorescence) [1, 15]: 45800 and 39500 and 44800
binding signal (a.u. fluorescence) [6]: 164
binding signal (a.u. fluorescence) [7]: 272
Ki [8]: 68.8 nM
Kd [9]: 0.137 nM
Kd [10]: 0.306 nM
binding (delta Fnorm (per mille)) [2, 15]: 38.1
binding (delta Fnorm (per mille)) [11]: -0.745
binding (delta Fnorm (per mille)) [4]: 3.56
binding (delta Fnorm (per mille)) [12]: -1.86
Kd ([5]; after primer nt 1-20 every U = rigidly linked phenyl-dU and every A = flexibly linked indole-dA (nucleotides 1,2), DNA backbone): 2.25 nM

CATGACGCTCACTGTATCTCGCGUUUAACGUAACAGCGAUGUCUCUCAUGAUGUC [HIR-6_V1]
binding signal (a.u. fluorescence) [1, 16]: 742
binding (delta Fnorm (per mille)) [2, 16]: -0.274

CATGACGCTCACTGTATCTCGCGUUUAACGUAACAGCGAUGUCUCUCAUGAUGUC [HIR-6_V2]
binding signal (a.u. fluorescence) [1, 17]: 644
binding (delta Fnorm (per mille)) [2, 17]: 1.86

CATGACGCTCACTGTATCTCGCGUUUAACGUAACAGCGAUGUCUCUCAUGAUGUC [HIR-6_V3]
binding signal (a.u. fluorescence) [1, 18]: 196
binding (delta Fnorm (per mille)) [2, 18]: -3.35

CATGACGCTCACTGTATCTCGCGUUUAACGUAACAGCGAUGUCUCUCAUGAUGUC [HIR-6_V4]
binding signal (a.u. fluorescence) [1, 19]: 195
binding (delta Fnorm (per mille)) [2, 19]: -1.7

Insulin receptor (from UniProt P06213)
Kd [13]: 0.3 nM
